Test: soluble fraction after stress (log2 fold change); higher = more stays soluble; pooled small domains, quantitative proteomics
Settings: stress: 75 degC
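Also: 20 min heating vs room temperature control held 20 min.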

| Sequence | soluble fraction (log2) |
| --- | --- |
| HMSKITNALLMMKLLSNGKVYSVKELSEELGVTERMVRNYKEQLEMSGYIIESFKGPGGGYFINKN | -2.61 |
| HMSKKAIVINLLKRPDGASLKDIMQATYWQAHSVRGFISGSLTKKMGLNVESFKRPDGERAYRIN | -2.47 |
| HMSKLIDQELINFFKNQIESKSFRYGVSIEDSYEEIKSNQIKFYGEQEDKLKAIDNAFIELKRERAGIR | -0.168 |
| HMSKNDLAGDEADVYKLLSVETGKPISDLVNRLPFGKSKTREILNTLAEKGFVYISGSGRGTKYHR | -0.296 |
| HMSKNTFIGNIDDKELYVGSGRYGPFMLYDGKFTNITRYLSDESKELTDITIDDYSKIVNNARPK | -0.175 |
| HMSKNVTMPNLVGYSMRQAKAELLSRGLHLGKLIYVNDIATNNVISQLYRNAEIEPGVKIESESYVDLVVG | -1.76 |
| HMSKPTLTDELLTLDLFEEIIKAKENAKGANKRFSLVGFLESKYIVDQEMLPKVNVKVTEYYNLTREN | -1.8 |
| HMSKPVVWIVGDSTVSAFTDNYYYPRYGWGTQIDKYLDGTFEVKNIALSGRSSTSYTADKEYGELIAG | 0.293 |
| HMSKRIFPNEFQRNSPDAMVMLDKMNLSRINVDPLTKSLTLNGGGSVKTLLNGREVSAVEIAALSP | 0.124 |
| HMSKSENLYSAARELIPGGVNSPVRAFTGVGGTPLFIEKADGAYLYDVDGKAYIDYVGSWGPMVLGHNHP | -0.337 |
| HMSKSIEEIYDEAIRSLANEEYDSAKKLFSYLIDNFSDPEKLPLSLFWLGEIEFSSSNFDQSKIHYIE | -0.15 |
| HMSKSIGEALKEERRSLGLTQEQFIKGIISESFYSKVERGKNEIVAVDLLKILAANNISEEEFLSKLN | -0.694 |
| HMSKSPELMEKIKEFAEGYFRENGETPSNKTIAGAMGMGRSTVYYYLVDMAQRGMISYENGVISTEKIRKL | -1.4 |
| HMSKTDYKILYSDLNREDAKQLSLLLEDKKIPYQTSEDGKTIKIPEGMVNRFRMEVATMGVNF | -0.0248 |
| HMSKTKDVLVQLMAERGLTQSDIARALSVRPQAVQQWVSGKTRPTGKNLEALAEFLQLPPAVIVHGP | -0.282 |
| HMSKTQVKSVLDDIKGIGVVRRKALIKHFNDIEAIKAAQLAELKAVAGMDSKSAQSVYDFFHK | -0.453 |
| HMSKYERVYTGSEINVNHLKSQLEDAGISSVVRNDHESAIRAGFGSDYDRGVLLFVEKDNLLRAKHIIEKT | 0.126 |
| HMSKYLAFTVKKNDELLPFIEKALNGISHTKAKAILANGGAMVNKNTITQYNYPLTPGMTVEISRH | -0.5 |
| HMSLDLNENEKTIFDIIQNKKTIRLSELKIEAGLSNKGWDKAMKSLTKQGLAKVVKTEDQLTVKLL | -0.499 |
| HMSLEDNEVIQRMKVILDRFDEETAVDRTTAFKAVLDHIGKMDAESKTLEHMAEMLEALLDKVLEE | -1.09 |
| HMSLGPNAYGKPATALNILRETVMGKELFDHAFKTYSKRWMFKHPSPEDFFRTMEDASAVDLDWFWR | 0.178 |
| HMSLGSQEYSIGFRNGDSTYHYIDKALKELAYEGVIDELSTQWFGSSRAVDFPSQKDALSELGYIA | -0.123 |
| HMSLGSSLFHARKKSGLTQEAVAEKLGVSRQTISKWETNETLPDIRQSKGLAMLYHMTLDELIE | -0.422 |
| HMSLGTDVVPDFTGKGIKEAKTEFAAYSEGELYIIGEGEKVKEQFPLPGEKVNKNSDLILYV | 0.0388 |
| HMSLIDLLQLNRKSKKLTLMNLVEMTGLSYGKVYRIFNGGIDKPTPDSLKLLAKALQLDYSYLFHKAGYL | -0.468 |
| HMSLIEQKSQIPLVQGGQRVDKVAAALFTDFSRAELTGWIQQGALTLDGAVVKPKYKVLGGEWLYLRASQS | -1.75 |

| Sequence | soluble fraction (log2) |
| --- | --- |
| HMSLNIIEITAKKEINELKSFNIIYFNFDKNNSIYEYKISEREKKEILEIEKIIKNSDNVTNYEIRYSF | -1.31 |
| HMSLNQRIKEARIKMGYTQEQLGNLIGVAKTTISGYEKNREPDAATIGLIIDALKVDANFLFQ | -2.06 |
| HMSLNSELIARIENLIASIEDKRSWGYGFAESVLGQVQAGATLSPRQLEIIAKLEKENSYSVQLERQ | -1.16 |
| HMSLPALSAEEQKIVDALHGTPKGVDDIIAETGISSGALLRSLTMLELKKVIVRLPGNRIAPK | -1.53 |
| HMSLPDREVVLETSSDSYYHFKTDHFQRQITYSAVRNAPVRLVTISAERAFEVISLNRRGERPEHLE | -3.24 |
| HMSLQEISDLISQAERADQEQLKEVLKQLHQVESGNQPMSKGFLSSALSTLNKYPALITSIGQLLFKLAT | -0.217 |
| HMSLSEGVSADVVADVQARLMELGYMDEDDPDGNFSESTRIAVEHFQQQAGLPVTGTVDKATLDALNSPD | 0.264 |
| HMSLSQLGLTPRQTDVLALLLKGQPNKLIARELGLSVETVKDHVAAVLRALNVSSRTQAVIAVSQMLQ | -2.13 |
| HMSLSVEESYKLLDISPSAGDEEITKKFRLLALKYHPDKNRSKIEWANNIMSRLNQAYSVIMSSRFESNAE | -1.6 |
| HMSLTTKSVEETLGITRQTLHNWIKEGLLPAPKKDFRNWYIWSDEDLENLRNIIEQKTLINNKKQAV | 0.203 |
| HMSMANKKDFILDTAQKLFMEQGFDQTSISQILEATQIARGTLYYYFSSKEEIMDAIIERTIEQ | -0.966 |
| HMSMDYYNILGVNRNASTGEIKKAYKRASMQHHPDRGGNSDEFIKVQQAYDTLSDNHKRQAYDNP | -0.0907 |
| HMSMDYYSTLGVSKTASASDIKKAYRKLAMANHPDKGGDSAKFAKITEAYDVLKDPQKRNNYDQFGTA | 0.0592 |
| HMSMEQAKAEEIEKLGDNAPERLQAAALFAEKFFPQDVMDAVYKITETADGVRAIEHIMQTVK | -1.11 |
| HMSMISLPNFVGKDIETVKAWAKENGITLIINKVEDSAKKDTVISQNPTNSDYSKILKGSAFTVNIAKE | 0.0389 |
| HMSMRILNHTVVKILKRYRIATDEQLQPLLDEAERSGRSLQDVVLDAKLVSETELTKLFADYAD | -3.66 |
| HMSMVGNIEKILVTGESKKSSELLAGRTENNRVVNFTGEKVLIGSMVNVRIEEVFPNSLGGSYLPS | -0.133 |
| HMSNAIDDAVEKVISENLDLAKERGLQSMGPLMGLVMKELGGTADGKAVSEALRRKISEISD | 0.413 |
| HMSNEDAYIKLRNGFLATLSEADLLLFTLREEGKTQKEIADQLGYKTHSAVSKRLQTMRGQFEGYLKTQ | -1.03 |
| HMSNEIIFNQKSITRFLMNPENNSPMIYPLELGHEMKVIKKNNDWLNVTDEKTGLNGWVISDDFGLTKPEG | -0.118 |
| HMSNETLFEFFEKNISQLTPTLVDNINRSLAVHSKKNVKLAIMIAAKSNVRNWNYISAILNRWEKE | -2.4 |
| HMSNIAQRLVLENALAKLNQEQQTIIDLRIIKGYSVAETARLLGKTESAVRTAQYRALKELAGILEED | -2.07 |
| HMSNIIIYPNPTNDGLIHIKGSKFPFNYALYNLSGKLIETGKKNQIQLNDRGVYLLKIQTEGQTYFKKII | -0.16 |
| HMSNNILEISSNKKNMKIQENKNLVESYYSKTENLYSFKLVFKNKRDLDQFLKEVYEDDSTINYKTSS | -1.27 |
| HMSNPPLPFLAKTKVSWTGEQDGDLGFLENEVVKVFHVVDELWWQGSLSRNGAEGIFPRDFVEVISAP | -2.09 |
| HMSNSWSYSEFMKAVESGQVESVTISGQSIKGTSRGGQAFESVLPAFDDKLMDTLLVNDVEVIGEKP | 0.556 |

| Sequence | soluble fraction (log2) |
| --- | --- |
| HMSNTGDIIRKLREESGVTAKELAHRIGLSASQMSRLESGKRRINSEVLTRIARALEVAPSQLID | -0.439 |
| HMSNTIFGINGPVVTVASKDFSMQEMVYVGNERLVGEVISIDDDLTTIQVYEVTTGLKPGEPVVGTGSAM | -0.34 |
| HMSNVDYSQFKKDTVVEHTKFGRGIIIQTSGDGEDKIAAIAFKGLGVKRFSLAIAAASLKIIGKNDE | -2.49 |
| HMSNYFIEISKDSLARINDEIELDVLRETSDTIIISQEEKTNTISSFIKVLFERQIDILSIQNR | 0.0911 |
| HMSNYYNILGVNKSSTQDEIKKAFRKKAVEHHPDKGGNEATFKKINEAYNTLSDNNKRHMYDMQQSG | 0.119 |
| HMSPDALSNLPIGSEIKFTLWDGTEKRLVKHPAAYQFSRPFWMNLNEYTYVPVNRIPKNYEVIRL | 0.182 |
| HMSPEVEEISIDHLKAGMRILSDLRLPNGTLVAPKGSVVDAHFIKIVENYVISYFGNPFPDRIKVIM | -1.95 |
| HMSPEWTPAEQDAIDKASEGEYGEALQRVLSGDYEPMDIPDALWGVQQVADKDTYSSIQKKIADIGN | 0.383 |
| HMSPIPLPVERAIHKLGSDISLARRRRHISQASLAERMGASLSTVRRMEKGDVRVPIHFFARALHVFG | 0.123 |
| HMSPIQLKYNEYLIYIDEGKINTAEIHGNKITGKLKEGSEYVVTIYPELIASITEKLAENNVQTQLIQ | -0.0829 |
| HMSPLPDRESLGAIEKLISLLGSSEWTVREKATRELGAFGYLARPVLQRELATSGDPEVSRRLERILSNL | -0.545 |
| HMSPLTPEEAEVLRILGDHGDMTVDNIATEGKMSAAAVLRVLGVLSAYGLAVPSGPGRWGSRAA | -0.462 |
| HMSPPPRPSHPEAAGLRHLAFEVDNIDDAVRHLDRLGVPHEPVRTDEYTGRRFLFFTDPDRLPLELYEK | -0.432 |
| HMSPQIDYFDDEELDVYRQIAPEAYTDEQIEVFRDILYTLRPEEVEEWLISLEKREINLPLILRQEAIELI | 0.481 |
| HMSPRQVTAVRSGSPMPVLPGEDWRLYDASGALVARGSGAAPIPKSTGLLRLNSEGLDGLADRWIWVL | -0.553 |
| HMSPSRRENLTAAAKEYFVNTQIRHKTFGNGVIIKRSGNIAAIRFDNGTIKQIDLIAALQAKVLSIL | -2.71 |
| HMSPSTNKTFSFSKENISIGQTVFIKKLNQNATVLTLPNKSNQLQVQFGVITMNVKLEDLALPTN | -2.62 |
| HMSPTSSRAAQARIRKMIESESPLKPISDSQLAARLGEEGISIARRTVAKYREQMNILPASQRRGV | -0.351 |
| HMSPVPRIEIELTSSKEDGSWTWRAVGAREPRGSLDGALLAKPAAVGDVLRVETDQFLDGMTVTAILPPRD | -0.263 |
| HMSQAVEISSVKTQIDGKSYYLHTIKQGQTLYGISKAYGVSVEELTTVNPETSKGLKVGQIIKVPDTKT | 0.395 |
| HMSQDLVVLGDSMLNNALKAFHIDPNAIKKKYWDKLILDYHLKSKEEVLTEIALGKKINVMVAHQLTSIMD | 0.051 |
| HMSQEILSNQSIKDMIELGFEEQTIIDKIQTSTSDFDTTIEELKALKQLGASPTILSAMIKSIKK | 1.01 |
| HMSQLDITEARIVVSGGLGMQGPENFKLLEELAKVLGGAVGASRPVVDNGWREYSNQVGQTGKIVAPELYV | 0.0901 |
| HMSQLETEEAKRIVLKDLLRLYNNYNIIELEEDEFDRFITYLNMPYDFLQKTSDYDLAVSIKRMYASY | -2.28 |
| HMSQNISSTKLIPENIKIGMSVFVIPLQQKGIVQSLPNRSKEVLVQIGNAKINVKINNLKLIED | -0.142 |
